{
  "source": "patent US20240279278A1",
  "about": "“NMU RECEPTOR 2 AGONISTS” (Boehringer Ingelheim International GmbH, priority 2023, published 2024)",
  "data": [
    {"target": "T1, human neuromedin U receptor 1 (human, UniProt Q9HB89 24-426)", "T1 sequence (looked up)": "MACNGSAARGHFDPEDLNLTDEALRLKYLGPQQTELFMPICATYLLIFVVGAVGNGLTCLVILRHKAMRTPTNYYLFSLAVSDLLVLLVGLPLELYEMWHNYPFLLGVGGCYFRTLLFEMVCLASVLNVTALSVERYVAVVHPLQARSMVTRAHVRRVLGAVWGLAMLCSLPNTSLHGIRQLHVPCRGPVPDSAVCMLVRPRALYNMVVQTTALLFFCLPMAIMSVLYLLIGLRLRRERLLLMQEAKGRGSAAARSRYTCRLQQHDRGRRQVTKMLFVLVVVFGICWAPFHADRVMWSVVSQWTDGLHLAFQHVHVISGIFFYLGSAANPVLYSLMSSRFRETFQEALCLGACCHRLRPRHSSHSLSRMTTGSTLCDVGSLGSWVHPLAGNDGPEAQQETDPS", "assay": "cell-based or functional assay", "units": {"EC50 (hNMUR1) buffer": "nM"}, "values": [
      {"binder": "EEEEXXXXXXXXXXXXXXXXYFLXXPRG (HELM PEPTIDE1{[O=C(O)CCCCCCCCCCCCCCCCCCC(=O)[*:2]].[gGlu].[gGlu].[gGlu].[gGlu].[Sar].[Sar].[Sar].[Sar].[Sar].[Sar].[Sar].[Sar].[Sar].[Sar].[Sar].[Sar].[Sar].[Sar].[Sar].[O=C(CN1CCN(CCN[*:1])CC1)[*:2]].Y.F.[meL].[Nle].[Orn].P.R.G.[am]}$$$$V2.0; SMILES CCCC[C@H](NC(=O)[C@H](CC(C)C)N(C)C(=O)[C@H](Cc1ccccc1)NC(=O)[C@H](Cc1ccc(O)cc1)NC(=O)CN1CCN(CCNC(=O)CN(C)C(=O)CN(C)C(=O)CN(C)C(=O)CN(C)C(=O)CN(C)C(=O)CN(C)C(=O)CN(C)C(=O)CN(C)C(=O)CN(C)C(=O)CN(C)C(=O)CN(C)C(=O)CN(C)C(=O)CN(C)C(=O)CN(C)C(=O)CN(C)C(=O)CC[C@H](NC(=O)CC[C@H](NC(=O)CC[C@H](NC(=O)CC[C@H](NC(=O)CCCCCCCCCCCCCCCCCCC(=O)O)C(=O)O)C(=O)O)C(=O)O)C(=O)O)CC1)C(=O)N[C@@H](CCCN)C(=O)N1CCC[C@H]1C(=O)N[C@@H](CCCNC(=N)N)C(=O)NCC(N)=O)", "note": "[C20DA-gGlu4-Sar15-AEPipAc-Tyr-Phe-NMeLeu-Nle-Orn-Pro-Arg-Gly-NH2]", "EC50 (hNMUR1) buffer": 440},
      {"binder": "EEEEXXXXXXXXXXXXXXXXYFLXXARG (HELM PEPTIDE1{[O=C(O)CCCCCCCCCCCCCCCCCCC(=O)[*:2]].[gGlu].[gGlu].[gGlu].[gGlu].[Sar].[Sar].[Sar].[Sar].[Sar].[Sar].[Sar].[Sar].[Sar].[Sar].[Sar].[Sar].[Sar].[Sar].[Sar].[O=C(CN1CCN(CCN[*:1])CC1)[*:2]].Y.F.[meL].[Nle].[Orn].[meA].R.G.[am]}$$$$V2.0; SMILES CCCC[C@H](NC(=O)[C@H](CC(C)C)N(C)C(=O)[C@H](Cc1ccccc1)NC(=O)[C@H](Cc1ccc(O)cc1)NC(=O)CN1CCN(CCNC(=O)CN(C)C(=O)CN(C)C(=O)CN(C)C(=O)CN(C)C(=O)CN(C)C(=O)CN(C)C(=O)CN(C)C(=O)CN(C)C(=O)CN(C)C(=O)CN(C)C(=O)CN(C)C(=O)CN(C)C(=O)CN(C)C(=O)CN(C)C(=O)CN(C)C(=O)CC[C@H](NC(=O)CC[C@H](NC(=O)CC[C@H](NC(=O)CC[C@H](NC(=O)CCCCCCCCCCCCCCCCCCC(=O)O)C(=O)O)C(=O)O)C(=O)O)C(=O)O)CC1)C(=O)N[C@@H](CCCN)C(=O)N(C)[C@@H](C)C(=O)N[C@@H](CCCNC(=N)N)C(=O)NCC(N)=O)", "note": "[C20DA-gGlu4-Sar15-AEPipAc-Tyr-Phe-NMeLeu-Nle-Orn-NMeAla-Arg-Gly-NH2]", "EC50 (hNMUR1) buffer": 1400},
      {"binder": "EEEEXXXXXXXXXXXXXXXXYFLXXARG (HELM PEPTIDE1{[O=C(O)CCCCCCCCCCCCCCCCCCC(=O)[*:2]].[gGlu].[gGlu].[gGlu].[gGlu].[Sar].[Sar].[Sar].[Sar].[Sar].[Sar].[Sar].[Sar].[Sar].[Sar].[Sar].[Sar].[Sar].[Sar].[Sar].[O=C(CN1CCN(CCN[*:1])CC1)[*:2]].Y.F.[meL].[Nle].[Dab].[meA].R.G.[am]}$$$$V2.0; SMILES CCCC[C@H](NC(=O)[C@H](CC(C)C)N(C)C(=O)[C@H](Cc1ccccc1)NC(=O)[C@H](Cc1ccc(O)cc1)NC(=O)CN1CCN(CCNC(=O)CN(C)C(=O)CN(C)C(=O)CN(C)C(=O)CN(C)C(=O)CN(C)C(=O)CN(C)C(=O)CN(C)C(=O)CN(C)C(=O)CN(C)C(=O)CN(C)C(=O)CN(C)C(=O)CN(C)C(=O)CN(C)C(=O)CN(C)C(=O)CN(C)C(=O)CC[C@H](NC(=O)CC[C@H](NC(=O)CC[C@H](NC(=O)CC[C@H](NC(=O)CCCCCCCCCCCCCCCCCCC(=O)O)C(=O)O)C(=O)O)C(=O)O)C(=O)O)CC1)C(=O)N[C@@H](CCN)C(=O)N(C)[C@@H](C)C(=O)N[C@@H](CCCNC(=N)N)C(=O)NCC(N)=O)", "note": "[C20DA-gGlu4-Sar15-AEPipAc-Tyr-Phe-NMeLeu-Nle-Dbu-NMeAla-Arg-Gly-NH2]", "EC50 (hNMUR1) buffer": "> 1000"},
      {"binder": "EEEEXXXXXXXXXXXXXYFLXXPRG (HELM PEPTIDE1{[O=C(O)CCCCCCCCCCCCCCCCCCC(=O)[*:2]].[gGlu].[gGlu].[gGlu].[gGlu].[Sar].[Sar].[Sar].[Sar].[Sar].[Sar].[Sar].[Sar].[Sar].[Sar].[Sar].[Sar].[O=C(CN1CCN(CCN[*:1])CC1)[*:2]].Y.F.[meL].[Nle].[Dab].P.R.G.[am]}$$$$V2.0; SMILES CCCC[C@H](NC(=O)[C@H](CC(C)C)N(C)C(=O)[C@H](Cc1ccccc1)NC(=O)[C@H](Cc1ccc(O)cc1)NC(=O)CN1CCN(CCNC(=O)CN(C)C(=O)CN(C)C(=O)CN(C)C(=O)CN(C)C(=O)CN(C)C(=O)CN(C)C(=O)CN(C)C(=O)CN(C)C(=O)CN(C)C(=O)CN(C)C(=O)CN(C)C(=O)CN(C)C(=O)CC[C@H](NC(=O)CC[C@H](NC(=O)CC[C@H](NC(=O)CC[C@H](NC(=O)CCCCCCCCCCCCCCCCCCC(=O)O)C(=O)O)C(=O)O)C(=O)O)C(=O)O)CC1)C(=O)N[C@@H](CCN)C(=O)N1CCC[C@H]1C(=O)N[C@@H](CCCNC(=N)N)C(=O)NCC(N)=O)", "note": "[C20DA-gGlu4-Sar12-AEPipAc-Tyr-Phe-NMeLeu-Nle-Dbu-Pro-Arg-Gly-NH2]", "EC50 (hNMUR1) buffer": 860},
      {"binder": "EEEEXXXXXXXXXXXXXYFLXKARG (HELM PEPTIDE1{[O=C(O)CCCCCCCCCCCCCCCCCCC(=O)[*:2]].[gGlu].[gGlu].[gGlu].[gGlu].[Sar].[Sar].[Sar].[Sar].[Sar].[Sar].[Sar].[Sar].[Sar].[Sar].[Sar].[Sar].[O=C(CN1CCN(CCN[*:1])CC1)[*:2]].Y.F.[meL].[Nle].K.[meA].R.G.[am]}$$$$V2.0; SMILES CCCC[C@H](NC(=O)[C@H](CC(C)C)N(C)C(=O)[C@H](Cc1ccccc1)NC(=O)[C@H](Cc1ccc(O)cc1)NC(=O)CN1CCN(CCNC(=O)CN(C)C(=O)CN(C)C(=O)CN(C)C(=O)CN(C)C(=O)CN(C)C(=O)CN(C)C(=O)CN(C)C(=O)CN(C)C(=O)CN(C)C(=O)CN(C)C(=O)CN(C)C(=O)CN(C)C(=O)CC[C@H](NC(=O)CC[C@H](NC(=O)CC[C@H](NC(=O)CC[C@H](NC(=O)CCCCCCCCCCCCCCCCCCC(=O)O)C(=O)O)C(=O)O)C(=O)O)C(=O)O)CC1)C(=O)N[C@@H](CCCCN)C(=O)N(C)[C@@H](C)C(=O)N[C@@H](CCCNC(=N)N)C(=O)NCC(N)=O)", "note": "[C20DA-gGlu4-Sar12-AEPipAc-Tyr-Phe-NMeLeu-Nle-Lys-NMeAla-Arg-Gly-NH2]", "EC50 (hNMUR1) buffer": 1400},
      {"binder": "EEEEXXXXXXXXXXXXXYFLXRPRG (HELM PEPTIDE1{[O=C(O)CCCCCCCCCCCCCCCCC(=O)[*:2]].[gGlu].[gGlu].[gGlu].[gGlu].[Sar].[Sar].[Sar].[Sar].[Sar].[Sar].[Sar].[Sar].[Sar].[Sar].[Sar].[Sar].[O=C(CN1CCN(CCN[*:1])CC1)[*:2]].Y.F.[meL].[Nle].R.P.R.G.[am]}$$$$V2.0; SMILES CCCC[C@H](NC(=O)[C@H](CC(C)C)N(C)C(=O)[C@H](Cc1ccccc1)NC(=O)[C@H](Cc1ccc(O)cc1)NC(=O)CN1CCN(CCNC(=O)CN(C)C(=O)CN(C)C(=O)CN(C)C(=O)CN(C)C(=O)CN(C)C(=O)CN(C)C(=O)CN(C)C(=O)CN(C)C(=O)CN(C)C(=O)CN(C)C(=O)CN(C)C(=O)CN(C)C(=O)CC[C@H](NC(=O)CC[C@H](NC(=O)CC[C@H](NC(=O)CC[C@H](NC(=O)CCCCCCCCCCCCCCCCC(=O)O)C(=O)O)C(=O)O)C(=O)O)C(=O)O)CC1)C(=O)N[C@@H](CCCNC(=N)N)C(=O)N1CCC[C@H]1C(=O)N[C@@H](CCCNC(=N)N)C(=O)NCC(N)=O)", "note": "[C18DA-gGlu4-Sar12-AEPipAc-Tyr-Phe-NMeLeu-Nle-Arg-Pro-Arg-Gly-NH2]", "EC50 (hNMUR1) buffer": 220},
      {"binder": "EEEEXXXXXXXXXXXXXXXXYFLXKPRG (HELM PEPTIDE1{[O=C(O)CCCCCCCCCCCCCCCCCCC(=O)[*:2]].[gGlu].[gGlu].[gGlu].[gGlu].[Sar].[Sar].[Sar].[Sar].[Sar].[Sar].[Sar].[Sar].[Sar].[Sar].[Sar].[Sar].[Sar].[Sar].[Sar].[O=C(CN1CCN(CCN[*:1])CC1)[*:2]].Y.F.[meL].[Nle].K.P.R.G.[am]}$$$$V2.0; SMILES CCCC[C@H](NC(=O)[C@H](CC(C)C)N(C)C(=O)[C@H](Cc1ccccc1)NC(=O)[C@H](Cc1ccc(O)cc1)NC(=O)CN1CCN(CCNC(=O)CN(C)C(=O)CN(C)C(=O)CN(C)C(=O)CN(C)C(=O)CN(C)C(=O)CN(C)C(=O)CN(C)C(=O)CN(C)C(=O)CN(C)C(=O)CN(C)C(=O)CN(C)C(=O)CN(C)C(=O)CN(C)C(=O)CN(C)C(=O)CN(C)C(=O)CC[C@H](NC(=O)CC[C@H](NC(=O)CC[C@H](NC(=O)CC[C@H](NC(=O)CCCCCCCCCCCCCCCCCCC(=O)O)C(=O)O)C(=O)O)C(=O)O)C(=O)O)CC1)C(=O)N[C@@H](CCCCN)C(=O)N1CCC[C@H]1C(=O)N[C@@H](CCCNC(=N)N)C(=O)NCC(N)=O)", "note": "[C20DA-gGlu4-Sar15-AEPipAc-Tyr-Phe-NMeLeu-Nle-Lys-Pro-Arg-Gly-NH2]", "EC50 (hNMUR1) buffer": 610},
      {"binder": "EEEEXXXXXXXXXXXXXXXXYFLXKARG (HELM PEPTIDE1{[O=C(O)CCCCCCCCCCCCCCCCCCC(=O)[*:2]].[gGlu].[gGlu].[gGlu].[gGlu].[Sar].[Sar].[Sar].[Sar].[Sar].[Sar].[Sar].[Sar].[Sar].[Sar].[Sar].[Sar].[Sar].[Sar].[Sar].[O=C(CN1CCN(CCN[*:1])CC1)[*:2]].Y.F.[meL].[Nle].K.[meA].R.G.[am]}$$$$V2.0; SMILES CCCC[C@H](NC(=O)[C@H](CC(C)C)N(C)C(=O)[C@H](Cc1ccccc1)NC(=O)[C@H](Cc1ccc(O)cc1)NC(=O)CN1CCN(CCNC(=O)CN(C)C(=O)CN(C)C(=O)CN(C)C(=O)CN(C)C(=O)CN(C)C(=O)CN(C)C(=O)CN(C)C(=O)CN(C)C(=O)CN(C)C(=O)CN(C)C(=O)CN(C)C(=O)CN(C)C(=O)CN(C)C(=O)CN(C)C(=O)CN(C)C(=O)CC[C@H](NC(=O)CC[C@H](NC(=O)CC[C@H](NC(=O)CC[C@H](NC(=O)CCCCCCCCCCCCCCCCCCC(=O)O)C(=O)O)C(=O)O)C(=O)O)C(=O)O)CC1)C(=O)N[C@@H](CCCCN)C(=O)N(C)[C@@H](C)C(=O)N[C@@H](CCCNC(=N)N)C(=O)NCC(N)=O)", "note": "[C20DA-gGlu4-Sar15-AEPipAc-Tyr-Phe-NMeLeu-Nle-Lys-NMeAla-Arg-Gly-NH2]", "EC50 (hNMUR1) buffer": "> 1000"}
    ]}
  ]
}
